Measured values as given in the supplement of paper PMC9170038.

Tested on: MS2 coat protein
Test: apparent KD of MS2 coat protein; designed switch direction (-1 OFF switch, 1 ON switch): -1; higher = weaker reporter binding
Method in brief: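 The apparent KD reported per design is the median over clusters of curve fits to normalised cluster fluorescence. The RNA switches were transcribed on Illumina chips by stalled E. coli RNA polymerase. SNAP-549-labelled MS2 coat protein was titrated from 0.7 or 1.5 nM, doubling up to 3 µM, in Tris-HCl pH 7.5 buffer containing KCl, MgCl2, BSA, DTT, tRNA and Tween-20, with no input, 200 uM small-molecule ligand, or an oligonucleotide input.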

[1] = input ligand: microRNA oligo, concentration not stated
[2] = Eterna round: R95, input ligand: microRNA oligo, concentration not stated

Sequence | apparent KD of MS2 coat protein (input ligand: FMN 200 uM) [µM] | apparent KD of MS2 coat protein (input ligand: none) [µM] | apparent KD of MS2 coat protein [2] [µM] | also measured
CAUGAUUGGCGAGGAUAUUGACCUAGUUAGCGACGAGAAGGCGCCUGUCACAUGAGGAUCACCCAUGUGAAUCUGGUGAAAGAG [Ex NG1 #92] (Eterna round: R96, puzzle: Exclusion NG 1) | 0.0216 | 0.0183 |  | apparent KD of MS2 coat protein [1]: 0.0133 µM
CAUGAUUGGCGAGGAUAUUGAUCUAGUUGGCGACGAGAAGGCGCCUGUCACAUGAGGAUCACCCAUGUGAGUCUGGUGGAUGAG [Ex NG1 #87] (Eterna round: R96, puzzle: Exclusion NG 1) | 0.0214 | 0.0204 |  | apparent KD of MS2 coat protein [1]: 0.0165 µM
CAUGAUUGGCGAGGAUAUUGAUCUAGUUGGCGACGAGAAGGCGCCUGUCACAUGAGGAUCACCCAUGUGUGUCUGGUGAAUGAG [Ex NG1 #86] (Eterna round: R96, puzzle: Exclusion NG 1) | 0.0825 | 0.0633 |  | apparent KD of MS2 coat protein [1]: 0.0484 µM
CAUGCACAUGAGGAUCACCCAUGUCAGGAUAUCUAUCAUAGCAUCGAAAGAUGCGGGUAGAGAAGGGACAACCC [ChP Ext 10-04-2015 #10] (puzzle: Exclusion 1) |  |  | 0.0155 | 
CAUGUCCGAGGAUAUAUUAUGUGAAACAUGAGGAUCACCCAUGUUAUAUGAUGGAUGUAAAUAGAAGGCGGACGUG [Mat - Exclusion 5 - JL mod - D65] (puzzle: Exclusion 5) |  |  | 0.0316 | apparent KD of MS2 coat protein (Eterna round: R95, input ligand: FMN 200 uM): 0.0263 µM; apparent KD of MS2 coat protein (Eterna round: R95, input ligand: none): 0.0345 µM
CAUUAUGUUGAGGAUAUGCGCCGGCUCGCUGACGCAGAAGGCGACACAUGAGGAUCACCCAUGUCAGUUCGCGA [salish99_ex6_r004_420] (Eterna round: R97, puzzle: Exclusion 6) | 0.0158 | 0.0145 |  | 
CAUUCACAUGAGGAUCACCCAUGUCAGGAUAUAGUCGAUAUAUGGAAACAUAUAUCGACUAGAAGGGACUAGCG [Jieuxxlusion 13 - Jieux - Exclusion 1] (Eterna round: R97, puzzle: Exclusion 1) | 0.152 | 0.0527 |  | 
CCAAGCUAAAUCAUUAACAACAUGAGGAUCACCCAUGUGUAAGCAAUUAUGUUUGGGCUCUUUAGUGCUCGUCUUAU [JR_STOV1_Sub043] (Eterna round: R97, puzzle: Sensor, turn-off variant 1) | 0.0157 | 0.0163 |  | 
CCAAGCUUGUUCAUUAACCACAUGAGGAUCACCCAUGUCUUGGCAAUUAUGACUUGCCCGUCAGGUGCUCGUCUUAU [Sensor-V1 #35] (Eterna round: R97, puzzle: Sensor, turn-off variant 1) | 0.0655 | 0.0713 |  | 
CCACCGCCGUCAGGAUAUAACAUGAGGAUCACCCAUGUGUGAAGCAUGAGAGACUCUAACAAGUGUUAGAAGGGACUUAUUGCG [Eternabot solution 36] (Eterna round: R96, puzzle: Exclusion NG 2) | 0.176 | 0.0758 |  | apparent KD of MS2 coat protein [1]: 0.0632 µM
CCACGACAUGAGGAUCACCCAUGUCAGGAUAUCCCUCAUUGUAUGAAAAUACAAUGAGGGAGAAGGGACGUGAC [SS1 Omei 2] (puzzle: Exclusion 1) |  |  | 0.0271 | 
CCAGCGUGUGUGAGGAUAUGCUGGUCCUUGGAUCAGCAGAAGGCACAUGAGGAUCACCCAUGUGAGAACGUUGG [JL bmx4 3.33] (puzzle: Brourd's mod of Exclusion 4) |  |  | 0.0176 | 
CCAGGCAGUGUGAGGAUAUGCUGGUGCUUGCAUCAGCAGAAGGCACAUGAGGAUCACCCAUGUGAAGAGCUUGG [Mat - Exclusion 4 - JL Mod - D97] (puzzle: Brourd's mod of Exclusion 4) |  |  | 0.0211 | 
CCAGGCUGUGUGAGGAUAUGCUGGUCCUUGGAUCAGCAGAAGGCACAUGAGGAUCACCCAUGUGAAUAGCUUGG [JL bmx4 3.26] (puzzle: Brourd's mod of Exclusion 4) |  |  | 0.0158 | 
CCAGGCUGUGUGAGGAUAUGCUGGUCCUUGGAUCAGCAGAAGGCACAUGAGGAUCACCCAUGUGAGGAGCUUGG [JL bmx4 3.28] (puzzle: Brourd's mod of Exclusion 4) |  |  | 0.0199 | 
CCAUCACAUGAGGAUCACCCAUGUGAGGAUAUGUUUUUGGUGCGUAUAAAGCCUGGGAACAGAAGGUACAGGGA [Eternabot (L2) Solution 50] (Eterna round: R97, puzzle: Exclusion 1) | 0.0153 | 0.0129 |  | 
CCAUGUGAGGAGGAUAUCGCCGCGCGAACCGAAUGAGAAGGUCUUACAUGAGGAUCACCCAUGUAAAGUACAUC [Eternabot (L1) Solution 1] (Eterna round: R97, puzzle: Exclusion 6) | 0.0209 | 0.0131 |  | 
CCCGAGGAAGGAUAUACAUGAGGAUCACCCAUGUGCGUUGGGACUGGCGUGGUCUUCAGUAGAAGGUCCGCGCC [Esdiza] (Eterna round: R97, puzzle: Exclusion 3) | 0.0487 | 0.0338 |  | 
CCCGGGCUUGUGAGGAUAUUGUGUGUGAAAGCGCGCGAGAAGGCACAUGAGGAUCACCCAUGUAAGGGCCCGGG [-34.6, -32.6 kcal, A 23%, 6bis-0] (Eterna round: R97, puzzle: Brourd's mod of Exclusion 4) | 0.0193 | 0.0859 |  | 
